From IntAct's records for PubMed 31515488

B1: Protein LDOC1 (Homo sapiens), O95751 (parent)
chain: MVDELVLLLHALLMRHRALSIENSQLMEQLRLLVCERASLLRQVRPPSCPVPFPETFNGESSRLPEFIVQTASYMLVNENRFCNDAMKVAFLISLLTGEAEEWVVPYIEMDSPILGDYRAFLDEMKQCFGWDDDEDDDDEEEEDDY
partner: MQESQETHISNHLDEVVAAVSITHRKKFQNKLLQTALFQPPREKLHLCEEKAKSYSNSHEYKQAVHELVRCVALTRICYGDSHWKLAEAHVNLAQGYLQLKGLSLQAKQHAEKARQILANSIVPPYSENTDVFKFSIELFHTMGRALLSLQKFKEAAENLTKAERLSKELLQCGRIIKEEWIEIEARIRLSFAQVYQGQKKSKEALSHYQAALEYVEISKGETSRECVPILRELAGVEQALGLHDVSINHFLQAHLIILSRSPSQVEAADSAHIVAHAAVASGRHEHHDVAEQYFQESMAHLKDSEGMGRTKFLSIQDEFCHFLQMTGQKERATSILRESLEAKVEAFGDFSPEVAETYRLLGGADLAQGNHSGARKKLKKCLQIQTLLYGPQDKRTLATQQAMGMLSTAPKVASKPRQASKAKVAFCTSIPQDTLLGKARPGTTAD
B2: G-patch domain and KOW motifs-containing protein (Homo sapiens), Q92917 (parent)
chain: MADSKEGVLPLTAASTAPISFGFTRTSARRRLADSGDGAGPSPEEKDFLKTVEGRELQSVKPQEAPKELVIPLIQNGHRRQPPARPPGPSTDTGALADGVVSQAVKELIAESKKSLEERENAGVDPTLAIPMIQKGCTPSGEGADSEPRAETVPEEANYEAVPVEAYGLAMLRGMGWKPGEGIGRTFNQVVKPRVNSLRPKGLGLGANLTEAQALTPTGPSRMPRPDEEQEKDKEDQPQGLVPGGAVVVLSGPHRGLYGKVEGLDPDNVRAMVRLAVGSRVVTVSEYYLRPVSQQEFDKNTLDLRQQNGTASSRKTLWNQELYIQQDNSERKRKHLPDRQDGPAAKSEKAAPRSQHWLHRDLRVRFVDNMYKGGQYYNTKMIIEDVLSPDTCVCRTDEGRVLEGLREDMLETLVPKAEGDRVMVVLGPQTGRVGHLLSRDRARSRALVQLPRENQVVELHYDAICQYMGPSDTDDD
partner: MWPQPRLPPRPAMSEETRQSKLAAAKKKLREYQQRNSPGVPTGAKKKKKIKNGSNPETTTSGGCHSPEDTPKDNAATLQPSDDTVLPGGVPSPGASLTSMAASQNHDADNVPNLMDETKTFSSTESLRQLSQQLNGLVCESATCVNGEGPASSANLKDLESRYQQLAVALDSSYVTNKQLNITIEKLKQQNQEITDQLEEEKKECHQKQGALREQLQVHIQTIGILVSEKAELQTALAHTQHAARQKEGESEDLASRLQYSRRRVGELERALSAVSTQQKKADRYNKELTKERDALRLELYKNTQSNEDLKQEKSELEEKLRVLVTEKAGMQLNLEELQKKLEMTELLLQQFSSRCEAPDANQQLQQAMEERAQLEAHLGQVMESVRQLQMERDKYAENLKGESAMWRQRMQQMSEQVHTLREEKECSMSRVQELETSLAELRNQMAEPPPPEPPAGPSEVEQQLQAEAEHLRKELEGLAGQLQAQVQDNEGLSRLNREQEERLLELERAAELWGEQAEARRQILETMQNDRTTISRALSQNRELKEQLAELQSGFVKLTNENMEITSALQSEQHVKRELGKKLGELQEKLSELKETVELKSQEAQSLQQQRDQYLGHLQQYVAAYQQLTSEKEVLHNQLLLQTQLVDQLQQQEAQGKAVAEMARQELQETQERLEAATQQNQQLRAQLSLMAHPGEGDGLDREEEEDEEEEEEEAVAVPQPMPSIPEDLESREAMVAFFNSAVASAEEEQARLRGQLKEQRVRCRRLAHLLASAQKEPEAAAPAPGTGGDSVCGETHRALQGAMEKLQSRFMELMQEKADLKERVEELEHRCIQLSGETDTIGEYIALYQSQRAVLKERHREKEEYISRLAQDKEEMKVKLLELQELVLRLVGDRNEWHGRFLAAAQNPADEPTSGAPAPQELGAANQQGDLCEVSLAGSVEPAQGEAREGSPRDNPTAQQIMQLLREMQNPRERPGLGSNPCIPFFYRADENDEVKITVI
B3: MAP kinase-activated protein kinase 3 (Homo sapiens), Q16644 (parent)
chain: MDGETAEEQGGPVPPPVAPGGPGLGGAPGGRREPKKYAVTDDYQLSKQVLGLGVNGKVLECFHRRTGQKCALKLLYDSPKARQEVDHHWQASGGPHIVCILDVYENMHHGKRCLLIIMECMEGGELFSRIQERGDQAFTEREAAEIMRDIGTAIQFLHSHNIAHRDVKPENLLYTSKEKDAVLKLTDFGFAKETTQNALQTPCYTPYYVAPEVLGPEKYDKSCDMWSLGVIMYILLCGFPPFYSNTGQAISPGMKRRIRLGQYGFPNPEWSEVSEDAKQLIRLLLKTDPTERLTITQFMNHPWINQSMVVPQTPLHTARVLQEDKDHWDEVKEEMTSALATMRVDYDQVKIKDLKTSNNRLLNKRRKKQAGSSSASQGCNNQ
B4: Ribose-phosphate pyrophosphokinase 1 (Homo sapiens), P60891 (parent)
chain: MPNIKIFSGSSHQDLSQKIADRLGLELGKVVTKKFSNQETCVEIGESVRGEDVYIVQSGCGEINDNLMELLIMINACKIASASRVTAVIPCFPYARQDKKDKSRAPISAKLVANMLSVAGADHIITMDLHASQIQGFFDIPVDNLYAEPAVLKWIRENISEWRNCTIVSPDAGGAKRVTSIADRLNVDFALIHKERKKANEVDRMVLVGDVKDRVAILVDDMADTCGTICHAADKLLSAGATRVYAILTHGIFSGPAISRINNACFEAVVVTNTIPQEDKMKHCSKIQVIDISMILAEAIRRTHNGESVSYLFSHVPL
partner: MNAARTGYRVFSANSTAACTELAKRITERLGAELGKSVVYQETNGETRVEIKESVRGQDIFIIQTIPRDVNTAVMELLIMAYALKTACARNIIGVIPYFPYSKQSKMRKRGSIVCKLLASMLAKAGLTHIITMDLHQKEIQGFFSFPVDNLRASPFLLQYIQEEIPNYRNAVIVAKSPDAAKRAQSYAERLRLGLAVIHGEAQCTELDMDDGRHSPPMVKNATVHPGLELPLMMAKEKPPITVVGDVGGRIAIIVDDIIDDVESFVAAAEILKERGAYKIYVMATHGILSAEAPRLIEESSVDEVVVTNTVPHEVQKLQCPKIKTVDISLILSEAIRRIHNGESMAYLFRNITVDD
B5: WASH complex subunit 3 (Homo sapiens), Q9Y3C0 (parent)
chain: MDEDGLPLMGSGIDLTKVPAIQQKRTVAFLNQFVVHTVQFLNRFSTVCEEKLADLSLRIQQIETTLNILDAKLSSIPGLDDVTVEVSPLNVTSVTNGAHPEATSEQPQQNSTQDSGLQESEVSAENILTVAKDPRYARYLKMVQVGVPVMAIRNKMISEGLDPDLLERPDAPVPDGESEKTVEESSDSESSFSD
partner: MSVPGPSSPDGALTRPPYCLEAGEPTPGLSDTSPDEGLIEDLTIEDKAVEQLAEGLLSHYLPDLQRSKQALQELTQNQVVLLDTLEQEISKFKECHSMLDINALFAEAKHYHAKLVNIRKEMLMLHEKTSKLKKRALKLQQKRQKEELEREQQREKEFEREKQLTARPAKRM
B6: Zinc finger protein Aiolos (Homo sapiens), Q9UKT9 (parent)
chain: MEDIQTNAELKSTQEQSVPAESAAVLNDYSLTKSHEMENVDSGEGPANEDEDIGDDSMKVKDEYSERDENVLKSEPMGNAEEPEIPYSYSREYNEYENIKLERHVVSFDSSRPTSGKMNCDVCGLSCISFNVLMVHKRSHTGERPFQCNQCGASFTQKGNLLRHIKLHTGEKPFKCHLCNYACQRRDALTGHLRTHSVEKPYKCEFCGRSYKQRSSLEEHKERCRTFLQSTDPGDTASAEARHIKAEMGSERALVLDRLASNVAKRKSSMPQKFIGEKRHCFDVNYNSSYMYEKESELIQTRMMDQAINNAISYLGAEALRPLVQTPPAPTSEMVPVISSMYPIALTRAEMSNGAPQELEKKSIHLPEKSVPSERGLSPNNSGHDSTDTDSNHEERQNHIYQQNHMVLSRARNGMPLLKEVPRSYELLKPPPICPRDSVKVINKEGEVMDVYRCDHCRVLFLDYVMFTIHMGCHGFRDPFECNMCGYRSHDRYEFSSHIARGEHRALLK
partner: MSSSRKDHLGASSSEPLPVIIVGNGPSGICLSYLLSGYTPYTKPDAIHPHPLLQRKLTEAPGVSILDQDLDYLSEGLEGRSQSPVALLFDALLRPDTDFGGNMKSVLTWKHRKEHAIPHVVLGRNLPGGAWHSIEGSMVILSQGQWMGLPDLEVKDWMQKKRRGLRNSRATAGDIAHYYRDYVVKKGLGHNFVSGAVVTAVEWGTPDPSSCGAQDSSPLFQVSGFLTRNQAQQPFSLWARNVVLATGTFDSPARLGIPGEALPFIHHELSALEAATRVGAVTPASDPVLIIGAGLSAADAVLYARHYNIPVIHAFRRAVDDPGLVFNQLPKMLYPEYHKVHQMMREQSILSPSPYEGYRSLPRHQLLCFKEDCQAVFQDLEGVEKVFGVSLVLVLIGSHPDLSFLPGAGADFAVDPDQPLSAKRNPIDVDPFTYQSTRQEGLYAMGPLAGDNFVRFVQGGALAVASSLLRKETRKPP
B7: Phosphatidylinositol-3-phosphate phosphatase MTMR7 (Homo sapiens), Q9Y216 (parent)
chain: MEHIRTPKVENVRLVDRVSPKKAALGTLYLTATHVIFVENSPDPRKETWILHSQISTIEKQATTATGCPLLIRCKNFQIIQLIIPQERDCHDVYISLIRLARPVKYEELYCFSFNPMLDKEEREQGWVLIDLSEEYTRMGLPNHYWQLSDVNRDYRVCDSYPTELYVPKSATAHIIVGSSKFRSRRRFPVLSYYYKDNHASICRSSQPLSGFSARCLEDEQMLQAIRKANPGSDFVYVVDTRPKLNAMANRAAGKGYENEDNYSNIKFQFIGIENIHVMRNSLQKMLEVCELKSPSMSDFLWGLENSGWLRHIKAIMDAGIFIAKAVSEEGASVLVHCSDGWDRTAQVCSVASLLLDPHYRTLKGFMVLIEKDWISFGHKFNHRYGNLDGDPKEISPVIDQFIECVWQLMEQFPCAFEFNERFLIHIQHHIYSCQFGNFLCNSQKERRELKIQERTYSLWAHLWKNRADYLNPLFRADHSQTQGTLHLPTTPCNFMYKFWSGMYNRFEKGMQPRQSVTDYLMAVKEETQQLEEELEALEERLEKIQKVQLNCTKVKSKQSEPSKHSGFSTSDNSIANTPQDYSGNMKSFPSRSPSQGDEDSALILTQDNLKSSDPDLSANSDQESGVEDLSCRSPSGGEHAPSEDSGKDRDSDEAVFLTA
partner: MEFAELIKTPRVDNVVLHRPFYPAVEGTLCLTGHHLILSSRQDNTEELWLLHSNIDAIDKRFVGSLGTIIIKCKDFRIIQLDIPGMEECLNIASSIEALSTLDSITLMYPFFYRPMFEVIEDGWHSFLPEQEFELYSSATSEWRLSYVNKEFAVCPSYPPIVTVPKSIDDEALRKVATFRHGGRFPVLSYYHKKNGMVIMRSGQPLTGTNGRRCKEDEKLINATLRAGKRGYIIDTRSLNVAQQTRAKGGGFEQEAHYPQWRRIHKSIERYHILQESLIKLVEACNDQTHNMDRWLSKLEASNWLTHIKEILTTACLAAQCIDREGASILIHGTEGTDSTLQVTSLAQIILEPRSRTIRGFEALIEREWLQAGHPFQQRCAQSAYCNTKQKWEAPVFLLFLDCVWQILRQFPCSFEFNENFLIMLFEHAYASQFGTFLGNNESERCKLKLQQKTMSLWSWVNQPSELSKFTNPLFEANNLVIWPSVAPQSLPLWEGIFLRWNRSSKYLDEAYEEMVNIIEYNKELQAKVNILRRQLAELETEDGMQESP

Variants of: B1
Settings: with ttc23_human TTC23, Q5W5X9

Row | effect of a mutation on the interaction | Variant
1 | disrupting interaction strength | L12H

Variants of: B2
Settings: with goga2_human GOLGA2, Q08379

Row | effect of a mutation on the interaction | Variant
2 | with no effect | V393A
3 | with no effect | A129T

Variants of: B3
Settings: with mk14_human MAPK14, Q16539
mk14_human MAPK14, Q16539, sequence (Q16539 whole entry): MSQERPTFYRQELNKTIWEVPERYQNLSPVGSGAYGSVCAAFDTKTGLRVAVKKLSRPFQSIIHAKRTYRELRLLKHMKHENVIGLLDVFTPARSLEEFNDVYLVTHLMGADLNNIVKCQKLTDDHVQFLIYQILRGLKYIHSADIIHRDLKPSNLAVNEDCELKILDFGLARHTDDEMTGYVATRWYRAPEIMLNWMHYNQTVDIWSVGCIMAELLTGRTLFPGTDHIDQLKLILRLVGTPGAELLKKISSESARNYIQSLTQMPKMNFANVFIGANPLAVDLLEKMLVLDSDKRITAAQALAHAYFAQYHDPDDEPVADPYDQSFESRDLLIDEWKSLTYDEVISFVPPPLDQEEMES

Row | effect of a mutation on the interaction | Variant
4 | with no effect | E105A

Variants of: B4
Settings: with kpra_human PRPSAP1, Q14558

Row | effect of a mutation on the interaction | Variant
5 | with no effect | E43D
6 | with no effect | D183H

Variants of: B4
Settings: with kpra_human PRPSAP1, Q14558
Remark: another data set of the same source

Row | effect of a mutation on the interaction | Variant
7 | with no effect | D203H

Variants of: B5
Settings: with bl1s6_human BLOC1S6, Q9UL45

Row | effect of a mutation on the interaction | Variant
8 | with no effect | F44L

Variants of: B6
Settings: with osgi1_human OSGIN1, Q9UJX0

Row | effect of a mutation on the interaction | Variant
9 | with no effect | N119D
10 | with no effect | A24V

Variants of: B7
Settings: with mtmr9_human MTMR9, Q96QG7

Row | effect of a mutation on the interaction | Variant
11 | with no effect | M522T
